Experiments:
[1] = molecular target: rPcrV protein (recombinant Pseudomonas PcrV) (Pseudomonas aeruginosa); experiment: SPR (Bio-Rad ProteOn XPR36); antibody captured, rPcrV as analyte; table under the sensorgram
[2] = molecular target: rPcrV protein (recombinant Pseudomonas PcrV) (Pseudomonas aeruginosa); experiment: SPR (Bio-Rad ProteOn XPR36); antibody captured on GLC sensor chip with anti-human IgG, rPcrV injected at multiple concentrations

- Kd [1]: 0.143 nM
- koff [1]: 0.000116 s⁻¹
- kon [1]: 808000 M⁻¹ s⁻¹
- Kd [2]: 0.143 nM
- koff [2]: 0.000116 s⁻¹
- kon [2]: 808000 M⁻¹ s⁻¹
B1: V2L2-GL (V2L2-germlined mAb) (antibody, V domains shown)
VH: EVQLLESGGGLVQPGGSLRLSCAASGFTFSSYAMNWVRQAPGKGLEWVSAITISGITAYYTDSVKGRFTISRDNSKNTLYLQMNSLRAEDTAVYYCAKEEFLPGTHYYYGMDVWGQGTTVTVSS
VL: AIQMTQSPSSLSASVGDRVTITCRASQGIRNDLGWYQQKPGKAPKLVIYSASTLQSGVPSRFSGSGSGTDFTLSISSLQPDDFATYYCLQDYNYPWTFGQGTKVEIK

— patent US20250243262A1
